Assay results taken from paper doi:10.1101/2024.10.02.616340 (bioRxiv, 2024).

Legend:
[1] = target: yeast Mcm3 (subunit of CMG) (budding yeast, UniProt P24279 1-971); assay: cryo-EM structure
[2] = target: T1, yeast Mcm4 (subunit of CMG) (budding yeast, UniProt P30665 1-933); assay: cryo-EM structure
T1 sequence: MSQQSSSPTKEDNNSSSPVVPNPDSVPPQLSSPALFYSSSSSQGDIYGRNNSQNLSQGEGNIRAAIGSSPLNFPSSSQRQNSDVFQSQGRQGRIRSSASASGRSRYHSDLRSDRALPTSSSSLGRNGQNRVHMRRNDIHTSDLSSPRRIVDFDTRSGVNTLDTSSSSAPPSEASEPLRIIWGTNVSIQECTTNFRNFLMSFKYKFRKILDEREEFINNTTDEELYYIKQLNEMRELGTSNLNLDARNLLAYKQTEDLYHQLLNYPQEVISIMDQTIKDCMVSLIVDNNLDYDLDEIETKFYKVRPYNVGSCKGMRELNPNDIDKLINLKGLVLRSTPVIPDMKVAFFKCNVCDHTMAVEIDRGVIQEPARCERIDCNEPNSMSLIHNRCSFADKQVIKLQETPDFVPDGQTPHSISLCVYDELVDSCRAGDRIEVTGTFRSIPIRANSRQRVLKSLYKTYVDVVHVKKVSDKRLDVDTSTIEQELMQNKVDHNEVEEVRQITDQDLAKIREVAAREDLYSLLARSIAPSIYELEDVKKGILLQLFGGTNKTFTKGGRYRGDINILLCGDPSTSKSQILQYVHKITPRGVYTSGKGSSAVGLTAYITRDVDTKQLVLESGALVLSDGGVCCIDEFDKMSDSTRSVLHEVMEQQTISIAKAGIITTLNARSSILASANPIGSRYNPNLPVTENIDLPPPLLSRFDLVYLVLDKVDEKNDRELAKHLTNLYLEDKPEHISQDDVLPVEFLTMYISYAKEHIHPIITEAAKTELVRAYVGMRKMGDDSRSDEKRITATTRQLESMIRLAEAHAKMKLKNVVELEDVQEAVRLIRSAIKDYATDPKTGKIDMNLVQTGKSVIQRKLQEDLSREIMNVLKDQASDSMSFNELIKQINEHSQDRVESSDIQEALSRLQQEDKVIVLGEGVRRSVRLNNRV

Sequence of yeast Mcm3 (subunit of CMG) (P24279 whole entry): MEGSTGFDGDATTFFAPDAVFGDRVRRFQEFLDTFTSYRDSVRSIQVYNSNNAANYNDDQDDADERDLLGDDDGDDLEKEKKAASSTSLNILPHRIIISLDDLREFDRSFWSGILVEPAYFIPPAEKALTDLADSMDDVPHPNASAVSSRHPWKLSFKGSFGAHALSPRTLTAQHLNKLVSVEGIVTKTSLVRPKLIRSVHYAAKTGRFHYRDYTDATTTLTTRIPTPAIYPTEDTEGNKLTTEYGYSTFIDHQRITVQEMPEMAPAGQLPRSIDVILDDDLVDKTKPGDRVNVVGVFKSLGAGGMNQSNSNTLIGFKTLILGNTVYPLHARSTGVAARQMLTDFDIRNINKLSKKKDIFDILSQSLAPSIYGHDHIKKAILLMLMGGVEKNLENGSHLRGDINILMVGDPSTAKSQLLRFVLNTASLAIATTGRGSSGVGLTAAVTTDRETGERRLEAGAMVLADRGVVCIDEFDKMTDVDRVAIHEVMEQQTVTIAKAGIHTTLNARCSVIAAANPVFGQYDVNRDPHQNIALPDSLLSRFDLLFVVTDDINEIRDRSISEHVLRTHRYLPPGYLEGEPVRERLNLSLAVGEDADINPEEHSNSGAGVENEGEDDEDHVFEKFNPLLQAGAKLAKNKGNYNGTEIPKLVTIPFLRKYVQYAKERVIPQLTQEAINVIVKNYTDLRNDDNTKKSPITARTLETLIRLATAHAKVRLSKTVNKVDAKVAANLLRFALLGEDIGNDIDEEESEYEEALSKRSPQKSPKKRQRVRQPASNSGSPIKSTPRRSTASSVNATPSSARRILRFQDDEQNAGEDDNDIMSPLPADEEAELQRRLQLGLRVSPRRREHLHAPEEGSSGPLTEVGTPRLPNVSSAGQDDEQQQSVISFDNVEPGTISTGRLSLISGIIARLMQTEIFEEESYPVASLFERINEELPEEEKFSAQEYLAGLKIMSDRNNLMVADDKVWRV

binding result [1]: binds
binding result [2]: binds
B1: yeast Mcm7 (subunit of CMG) (natural protein)
chain: MSAALPSIQLPVDYNNLFNEITDFLVTFKQDTLSSDATRNENEDENLDAENIEQHLLEKGPKYMAMLQKVANRELNSVIIDLDDILQYQNEKFLQGTQADDLVSAIQQNANHFTELFCRAIDNNMPLPTKEIDYKDDVLDVILNQRRLRNERMLSDRTNEIRSENLMDTTMDPPSSMNDALREVVEDETELFPPNLTRRYFLYFKPLSQNCARRYRKKAISSKPLSVRQIKGDFLGQLITVRGIITRVSDVKPAVEVIAYTCDQCGYEVFQEVNSRTFTPLSECTSEECSQNQTKGQLFMSTRASKFSAFQECKIQELSQQVPVGHIPRSLNIHVNGTLVRSLSPGDIVDVTGIFLPAPYTGFKALKAGLLTETYLEAQFVRQHKKKFASFSLTSDVEERVMELITSGDVYNRLAKSIAPEIYGNLDVKKALLLLLVGGVDKRVGDGMKIRGDINVCLMGDPGVAKSQLLKAICKISPRGVYTTGKGSSGVGLTAAVMKDPVTDEMILEGGALVLADNGICCIDEFDKMDESDRTAIHEVMEQQTISISKAGINTTLNARTSILAAANPLYGRYNPRLSPLDNINLPAALLSRFDILFLMLDIPSRDDDEKLAEHVTYVHMHNKQPDLDFTPVEPSKMREYIAYAKTKRPVMSEAVNDYVVQAYIRLRQDSKREMDSKFSFGQATPRTLLGIIRLSQALAKLRLADMVDIDDVEEALRLVRVSKESLYQETNKSKEDESPTTKIFTIIKKMLQETGKNTLSYENIVKTVRLRGFTMLQLSNCIQEYSYLNVWHLINEGNTLKFVDDGTMDTDQEDSLVSTPKLAPQTTASANVSAQDSDIDLQDA
